{
  "source": "patent US20180194839A1",
  "about": "(Novartis, published 2018)",
  "key": {"[1]": {"biological_target": "T1, recombinant human IL-17A (SEQ ID NO: 76) (human, UniProt Q16552 24-155, limits assumed)", "T1 sequence": "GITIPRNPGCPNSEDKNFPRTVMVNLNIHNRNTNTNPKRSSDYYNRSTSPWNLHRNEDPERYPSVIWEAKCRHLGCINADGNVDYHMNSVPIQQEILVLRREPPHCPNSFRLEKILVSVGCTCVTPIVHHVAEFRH", "assay": "cell-based or functional assay"}, "[2]": {"biological_target": "T2, recombinant human IL-17A/F heterodimer (human, UniProt Q16552 24-155; Q96PD4 31-163, limits assumed)", "T2 sequence (looked up) 1": "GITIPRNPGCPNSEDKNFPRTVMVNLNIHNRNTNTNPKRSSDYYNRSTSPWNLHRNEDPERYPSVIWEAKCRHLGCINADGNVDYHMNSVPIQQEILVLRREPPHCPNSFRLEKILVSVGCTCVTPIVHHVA", "T2 sequence (looked up) 2": "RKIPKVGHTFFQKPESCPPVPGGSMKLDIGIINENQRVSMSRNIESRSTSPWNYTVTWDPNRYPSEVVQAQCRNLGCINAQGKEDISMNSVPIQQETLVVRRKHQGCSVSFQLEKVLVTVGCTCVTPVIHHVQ", "assay": "cell-based or functional assay"}, "[3]": {"biological_target": "T3, recombinant human IL-17F (SEQ ID NO: 77) (human, UniProt Q96PD4 31-163)", "T3 sequence": "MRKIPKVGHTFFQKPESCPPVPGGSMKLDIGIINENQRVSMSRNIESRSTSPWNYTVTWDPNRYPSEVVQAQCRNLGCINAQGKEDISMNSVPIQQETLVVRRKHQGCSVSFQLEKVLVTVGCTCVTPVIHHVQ", "assay": "cell-based or functional assay"}, "[4]": {"biological_target": "T1, recombinant human IL-17A (SEQ ID NO: 76)", "assay": "cell-based or functional assay", "remark": "listed apart in the source"}, "[5]": {"biological_target": "T1, recombinant human IL-17A (SEQ ID NO: 76)", "assay": "cell-based or functional assay", "remark": "listed apart in the source"}, "[6]": {"biological_target": "T4, recombinant mouse IL-17A (SEQ ID NO: 83) (mouse, UniProt Q62386 26-158)", "T4 sequence": "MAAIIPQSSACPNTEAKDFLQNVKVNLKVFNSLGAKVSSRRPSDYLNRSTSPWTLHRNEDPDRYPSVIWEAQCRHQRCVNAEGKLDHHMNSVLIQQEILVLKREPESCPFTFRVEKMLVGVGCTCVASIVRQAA", "assay": "cell-based or functional assay"}, "[7]": {"biological_target": "T5, recombinant mouse IL-17A/F (R&D Systems Cat#5390-IL) (mouse, UniProt Q62386 26-158; Q7TNI7 29-161, limits assumed)", "T5 sequence (looked up) 1": "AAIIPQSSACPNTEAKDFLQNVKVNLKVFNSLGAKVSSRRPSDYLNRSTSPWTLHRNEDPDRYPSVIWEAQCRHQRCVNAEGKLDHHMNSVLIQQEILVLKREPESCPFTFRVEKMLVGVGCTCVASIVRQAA", "T5 sequence (looked up) 2": "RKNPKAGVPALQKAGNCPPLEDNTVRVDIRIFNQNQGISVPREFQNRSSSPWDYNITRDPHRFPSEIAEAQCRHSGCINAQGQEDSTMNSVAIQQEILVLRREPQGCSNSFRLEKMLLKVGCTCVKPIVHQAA", "assay": "cell-based or functional assay"}, "[8]": {"biological_target": "T6, recombinant mouse IL-17F (SEQ ID NO: 84) (mouse, UniProt Q7TNI7 29-161)", "T6 sequence": "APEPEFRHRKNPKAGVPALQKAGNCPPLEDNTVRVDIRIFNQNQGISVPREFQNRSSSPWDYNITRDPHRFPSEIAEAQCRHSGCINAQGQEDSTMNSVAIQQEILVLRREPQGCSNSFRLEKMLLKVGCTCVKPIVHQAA", "assay": "cell-based or functional assay"}, "[9]": {"biological_target": "T7, recombinant rat IL-17A (SEQ ID NO: 85) (rat, UniProt Q61453 18-150)", "T7 sequence": "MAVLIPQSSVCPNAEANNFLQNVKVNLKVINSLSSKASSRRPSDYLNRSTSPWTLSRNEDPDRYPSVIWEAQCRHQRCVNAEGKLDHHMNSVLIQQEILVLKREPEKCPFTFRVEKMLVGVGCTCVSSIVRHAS", "assay": "cell-based or functional assay"}, "[10]": {"biological_target": "T4, recombinant mouse IL-17A (SEQ ID NO: 83)", "assay": "cell-based or functional assay", "remark": "listed apart in the source"}, "[11]": {"biological_target": "T8, recombinant mouse IL-18 (MBL Cat#B004-5) (mouse, UniProt P70380 36-192)", "T8 construct": "also called mIL-18", "T8 sequence (looked up)": "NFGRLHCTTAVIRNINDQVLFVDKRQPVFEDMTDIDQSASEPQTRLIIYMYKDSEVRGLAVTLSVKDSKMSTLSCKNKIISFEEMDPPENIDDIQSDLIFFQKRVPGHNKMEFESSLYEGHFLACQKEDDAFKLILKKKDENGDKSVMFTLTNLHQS", "assay": "ELISA, coated cytokine, Ab 10 µg/ml"}, "[12]": {"biological_target": "T9, recombinant mouse IFN-γ (R&D Systems Cat#485-MT) (mouse, UniProt P01580 23-155)", "T9 construct": "also called mIFN-γ", "T9 sequence (looked up)": "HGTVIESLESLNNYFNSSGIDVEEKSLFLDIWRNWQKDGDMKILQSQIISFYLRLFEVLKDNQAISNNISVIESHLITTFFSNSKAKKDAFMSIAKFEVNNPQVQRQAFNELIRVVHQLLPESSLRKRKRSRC", "assay": "ELISA, coated cytokine, Ab 10 µg/ml"}, "[13]": {"biological_target": "T10, recombinant mouse TNFα (R&D Systems Cat#410-MT) (mouse, UniProt P06804 80-235)", "T10 construct": "coated at 0.5 µg/ml; also called mTNFα", "T10 sequence (looked up)": "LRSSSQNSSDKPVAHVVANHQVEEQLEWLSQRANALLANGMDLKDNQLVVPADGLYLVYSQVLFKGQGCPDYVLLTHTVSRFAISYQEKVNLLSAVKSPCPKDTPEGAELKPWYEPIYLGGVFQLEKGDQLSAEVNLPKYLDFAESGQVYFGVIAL", "assay": "ELISA, coated cytokine, Ab 10 µg/ml"}},
  "data": [
    {"binder": "XAB4 (antibody, human IgG1, kappa, V domains shown, also called MB435 N56Q) VH: EVQLVESGGDLVQPGGSLRLSCAASGFTFSSYWMSWVRQAPGKGLEWVANIKQDGSEKYYVDSVKGRFTISRDNAKNSLYLQMNSLRAEDTAVYYCARDRGSLYYWGQGTLVTVSS VL: AIQLTQSPSSLSASVGDRVTITCRPSQGINWELAWYQQKPGKAPKLLIYDASSLEQGVPSRFSGSGSGTDFTLTISSLQPEDFATYYCQQFNSYPLTFGGGTKVEIKR", "values": [
      {"measurement": "IC50, hu-GRO-alpha secretion by BJ cells; stimulus IL-17A (30 pM) + TNF-α (6 pM)", "setting": "[1]", "value": 7, "unit": "pM"},
      {"measurement": "IC50, hu-GRO-alpha secretion by BJ cells; stimulus IL-17A (1 nM)", "setting": "[1]", "value": 0.35, "unit": "nM"},
      {"measurement": "IC50, hu-GRO-alpha secretion by BJ cells; stimulus IL-17A/F (300 pM) + TNF-α (6 pM)", "setting": "[2]", "value": 0.1, "unit": "nM"},
      {"measurement": "IC50, hu-GRO-alpha secretion by BJ cells; stimulus IL-17A/F (3 nM)", "setting": "[2]", "value": 1.11, "unit": "nM"},
      {"measurement": "IC50, hu-GRO-alpha secretion by BJ cells; stimulus IL-17F (10 nM) + TNF-α (6 pM)", "setting": "[3]", "value": "> 3", "unit": "µM"},
      {"measurement": "IC50, hu-GRO-alpha secretion by BJ cells; stimulus IL-17F (30 nM)", "setting": "[3]", "value": "> 3000", "unit": "nM"},
      {"measurement": "IC50, huIL-6 secretion by BJ cells; stimulus rhuIL-17A (0.5 nM)", "setting": "[4]", "value": 0.55, "unit": "nM"},
      {"measurement": "IC50, huGROα secretion by BJ cells; stimulus rhuIL-17A (0.5 nM)", "setting": "[5]", "value": 0.44, "unit": "nM"},
      {"measurement": "IC50, mouse KC secretion by CMT-93 cells; stimulus mIL-17A (1 nM)", "setting": "[6]", "value": 13.8, "unit": "nM"},
      {"measurement": "IC50, mouse KC secretion by CMT-93 cells; stimulus mIL-17A/F (3 nM)", "setting": "[7]", "value": 10.3, "unit": "nM"},
      {"measurement": "IC50, mouse KC secretion by CMT-93 cells; stimulus mIL-17F (30 nM)", "setting": "[8]", "value": "> 10000", "unit": "nM"},
      {"measurement": "IC50, mouse KC secretion by CMT-93 cells; stimulus rIL-17A (1 nM)", "setting": "[9]", "value": 6.7, "unit": "nM"},
      {"measurement": "IC50, KC secretion by CMT-93 cells; stimulus mIL-17A (0.15 nM)", "setting": "[10]", "value": 7, "unit": "nM"},
      {"measurement": "O.D.", "setting": "[11]", "value": 0.054, "unit": "O.D."},
      {"measurement": "O.D.", "setting": "[12]", "value": 0.038, "unit": "O.D."},
      {"measurement": "O.D.", "setting": "[13]", "value": 0.065, "unit": "O.D."}
    ]},
    {"binder": "XAB1 (antibody, human IgG1, kappa, V domains shown, human IgG1/kappa monoclonal antibody; also called parental XAB1; XAB1 IgG) VH: EVQLVESGGDLVQPGGSLRLSCAASGFTFSSYWMSWVRQAPGKGLEWVANIKQDGSEKYYVDSVKGRFTISRDNAKNSLYLQMNSLRAEDTAVYYCARDRGSLYYWGQGTLVTVSS VL: AIQLTQSPSSLSASVGDRVTITCRPSQGIISALAWYQQKPGKAPKLLIYDASSLENGVPSRFSGSGSGTDFTLTISSLQPEDFATYYCQQFNSYPLTFGGGTKVEIKR", "values": [
      {"measurement": "IC50, hu-GRO-alpha secretion by BJ cells; stimulus IL-17A (30 pM) + TNF-α (6 pM)", "setting": "[1]", "value": 0.72, "unit": "nM"},
      {"measurement": "IC50, hu-GRO-alpha secretion by BJ cells; stimulus IL-17A/F (300 pM) + TNF-α (6 pM)", "setting": "[2]", "value": 6.22, "unit": "nM"},
      {"measurement": "IC50, hu-GRO-alpha secretion by BJ cells; stimulus IL-17F (10 nM) + TNF-α (6 pM)", "setting": "[3]", "value": "> 3", "unit": "µM"},
      {"measurement": "IC50, huIL-6 secretion by BJ cells; stimulus rhuIL-17A (0.5 nM)", "setting": "[4]", "value": 4.97, "unit": "nM"},
      {"measurement": "IC50, huGROα secretion by BJ cells; stimulus rhuIL-17A (0.5 nM)", "setting": "[5]", "value": 1.39, "unit": "nM"},
      {"measurement": "IC50, mouse KC secretion by CMT-93 cells; stimulus mIL-17A (1 nM)", "setting": "[6]", "value": 539, "unit": "nM"},
      {"measurement": "IC50, mouse KC secretion by CMT-93 cells; stimulus mIL-17A/F (3 nM)", "setting": "[7]", "value": "> 1000", "unit": "nM"},
      {"measurement": "IC50, mouse KC secretion by CMT-93 cells; stimulus mIL-17F (30 nM)", "setting": "[8]", "value": "> 10000", "unit": "nM"},
      {"measurement": "IC50, mouse KC secretion by CMT-93 cells; stimulus rIL-17A (1 nM)", "setting": "[9]", "value": 467, "unit": "nM"},
      {"measurement": "IC50, KC secretion by CMT-93 cells; stimulus mIL-17A (0.15 nM)", "setting": "[10]", "value": 128, "unit": "nM"},
      {"measurement": "O.D.", "setting": "[11]", "value": 0.022, "unit": "O.D."},
      {"measurement": "O.D.", "setting": "[12]", "value": 0.048, "unit": "O.D."},
      {"measurement": "O.D.", "setting": "[13]", "value": 0.025, "unit": "O.D."}
    ]}
  ]
}
